Source: paper PMC7614990 (Science (New York, N.Y.), 2021)

B1: HTATSF1 in the 17S U2 snRNP eluted with 3C protease (natural protein)
chain: SGTNLDGNDEFDEQLRMQELYGDGKDGDTQTDAGGEPDSLGQQPTDTPYEWDLDKKAWFPKITEDFIATYQANYGFSNDGASSSTANVEDVHARTAEEPPQEKAPEPTDARKKGEKRKAESGWFHVEEDRNTNVYVSGLPPDITVDEFIQLMSKFGIIMRDPQTEEFKVKLYKDNQGNLKGDGLCCYLKRESVELALKLLDEDEIRGYKLHVEVAKFQLKGEYDASKKKKKCKDYKKKLSMQQKQLDWRPERRAGPSRMRHERVVIIKNMFHPMDFEDDPLVLNEIREDLRVECSKFGQIRKLLLFDRHPDGVASVSFRDPEEADYCIQTLDGRWFGGRQITAQAWDGTTDYQVEETSREREERLRGWEAFLNAPEANRGLRRSDSVSASERAGPSRARHFSEHPSTSKMNAQETATGMAFEEPIDEKKFEKTEDGGEFEEGASENNAKESSPEKEAEEGCPEKESEEGCPKRGFEGSCSQKESEEGNPVRGSEEDSPKKESKKKTLKNDCEENGLAKESEDDLNKESEEEVGPTKESEEDDSEKESDEDCSEKQSEDGSEREFEENGLEKDLDEEGSEKELHENVLDKELEENDSENSEFEDDGSEKVLDEEGSEREFDEDSDEKEEEEDTYEKVFDDESDEKEDEEYADEKGLEAADKKAEEGDADEKLFEESDDKEDEDADGKEVEDADEKLFEDDDSNEKLFDEEEDSSEKLFDDSDERGTLGGFGSVEEGPLSTGSSFILSSDDDDDDI
B2: SF3B3 (natural protein)
chain: MFLYNLTLQRATGISFAIHGNFSGTKQQEIVVSRGKILELLRPDPNTGKVHTLLTVEVFGVIRSLMAFRLTGGTKDYIVVGSDSGRIVILEYQPSKNMFEKIHQETFGKSGCRRIVPGQFLAVDPKGRAVMISAIEKQKLVYILNRDAAARLTISSPLEAHKANTLVYHVVGVDVGFENPMFACLEMDYEEADNDPTGEAAANTQQTLTFYELDLGLNHVVRKYSEPLEEHGNFLITVPGGSDGPSGVLICSENYITYKNFGDQPDIRCPIPRRRNDLDDPERGMIFVCSATHKTKSMFFFLAQTEQGDIFKITLETDEDMVTEIRLKYFDTVPVAAAMCVLKTGFLFVASEFGNHYLYQIAHLGDDDEEPEFSSAMPLEEGDTFFFQPRPLKNLVLVDELDSLSPILFCQIADLANEDTPQLYVACGRGPRSSLRVLRHGLEVSEMAVSELPGNPNAVWTVRRHIEDEFDAYIIVSFVNATLVLSIGETVEEVTDSGFLGTTPTLSCSLLGDDALVQVYPDGIRHIRADKRVNEWKTPGKKTIVKCAVNQRQVVIALTGGELVYFEMDPSGQLNEYTERKEMSADVVCMSLANVPPGEQRSRFLAVGLVDNTVRIISLDPSDCLQPLSMQALPAQPESLCIVEMGGTEKQDELGERGSIGFLYLNIGLQNGVLLRTVLDPVTGDLSDTRTRYLGSRPVKLFRVRMQGQEAVLAMSSRSWLSYSYQSRFHLTPLSYETLEFASGFASEQCPEGIVAISTNTLRILALEKLGAVFNQVAFPLQYTPRKFVIHPESNNLIIIETDHNAYTEATKAQRKQQMAEEMVEAAGEDERELAAEMAAAFLNENLPESIFGAPKAGNGQWASVIRVMNPIQGNTLDLVQLEQNEAAFSVAVCRFSNTGEDWYVLVGVAKDLILNPRSVAGGFVYTYKLVNNGEKLEFLHKTPVEEVPAAIAPFQGRVLIGVGKLLRVYDLGKKKLLRKCENKHIANYISGIQTIGHRVIVSDVQESFIWVRYKRNENQLIIFADDTYPRWVTTASLLDYDTVAGADKFGNICVVRLPPNTNDEVDEDPTGNKALWDRGLLNGASQKAEVIMNYHVGETVLSLQKTTLIPGGSESLVYTTLSGGIGILVPFTSHEDHDFFQHVEMHLRSEHPPLCGRDHLSFRSYYFPVKNVIDGDLCEQFNSMEPNKQKNVSEELDRTPPEVSKKLEDIRTRYAF
B3: SF3B1 (natural protein)
chain: MAKIAKTHEDIEAQIREIQGKKAALDEAQGVGLDSTGYYDQEIYGGSDSRFAGYVTSIAATELEDDDDDYSSSTSLLGQKKPGYHAPVALLNDIPQSTEQYDPFAEHRPPKIADREDEYKKHRRTMIISPERLDPFADGGKTPDPKMNARTYMDVMREQHLTKEEREIRQQLAEKAKAGELKVVNGAAASQPPSKRKRRWDQTADQTPGATPKKLSSWDQAETPGHTPSLRWDETPGRAKGSETPGATPGSKIWDPTPSHTPAGAATPGRGDTPGHATPGHGGATSSARKNRWDETPKTERDTPGHGSGWAETPRTDRGGDSIGETPTPGASKRKSRWDETPASQMGGSTPVLTPGKTPIGTPAMNMATPTPGHIMSMTPEQLQAWRWEREIDERNRPLSDEELDAMFPEGYKVLPPPAGYVPIRTPARKLTATPTPLGGMTGFHMQTEDRTMKSVNDQPSGNLPFLKPDDIQYFDKLLVDVDESTLSPEEQKERKIMKLLLKIKNGTPPMRKAALRQITDKAREFGAGPLFNQILPLLMSPTLEDQERHLLVKVIDRILYKLDDLVRPYVHKILVVIEPLLIDEDYYARVEGREIISNLAKAAGLATMISTMRPDIDNMDEYVRNTTARAFAVVASALGIPSLLPFLKAVCKSKKSWQARHTGIKIVQQIAILMGCAILPHLRSLVEIIEHGLVDEQQKVRTISALAIAALAEAATPYGIESFDSVLKPLWKGIRQHRGKGLAAFLKAIGYLIPLMDAEYANYYTREVMLILIREFQSPDEEMKKIVLKVVKQCCGTDGVEANYIKTEILPPFFKHFWQHRMALDRRNYRQLVDTTVELANKVGAAEIISRIVDDLKDEAEQYRKMVMETIEKIMGNLGAADIDHKLEEQLIDGILYAFQEQTTEDSVMLNGFGTVVNALGKRVKPYLPQICGTVLWRLNNKSAKVRQQAADLISRTAVVMKTCQEEKLMGHLGVVLYEYLGEEYPEVLGSILGALKAIVNVIGMHKMTPPIKDLLPRLTPILKNRHEKVQENCIDLVGRIADRGAEYVSAREWMRICFELLELLKAHKKAIRRATVNTFGYIAKAIGPHDVLATLLNNLKVQERQNRVCTTVAIAIVAETCSPFTVLPALMNEYRVPELNVQNGVLKSLSFLFEYIGEMGKDYIYAVTPLLEDALMDRDLVHRQTASAVVQHMSLGVYGFGCEDSLNHLLNYVWPNVFETSPHVIQAVMGALEGLRVAIGPCRMLQYCLQGLFHPARKVRDVYWKIYNSIYIGSQDALIAHYPRIYNDDKNTYIRYELDYIL

How the values were obtained:
Assay in all cases: cryo-EM structure
SF3B1 = molecular target: B3
PHF5A = PHF5A (human (endogenous in FreeStyle 293-F), UniProt Q7RTV0 1-110)
SF3B6 = SF3B6 (human (endogenous in FreeStyle 293-F), UniProt Q9Y3B4 1-125)

**Q.** Does B1 bind (SF3B1)?
**A.** binds

**Q.** Does B2 bind (SF3B1)?
**A.** binds

**Q.** Does B3 bind (PHF5A)?
**A.** binds

**Q.** Does B3 bind (SF3B6)?
**A.** binds
